B1: Hammerhead Ribozyme (parent)
chain: ACCGGAUGUGCUUUCCGGUCUGAUGAGUCCGUGAGGACGAAACAG

Variants of: B1
Assay: self-cleavage, relative activity (ratio to wild type); higher = more cleavage; co-transcriptional

Going from C11G C38A to G4C G10U, the self-cleavage rises from 0.718 to 0.722.

Going from U21C A42C to U32C C43U, the self-cleavage rises from 0.28 to 0.661.

First: C3G C15U
Second: A6U G33A
The self-cleavage of the first is lower: 0.231 for the first, 0.793 for the second.

Going from U9A A42G to A6C G36A, the self-cleavage rises from 0.218 to 0.391.

First: G10C G35C
Second: A1C C16U
The self-cleavage of the first is higher: 0.497 for the first, 0.347 for the second.

Compared with A1C G31A, G10A A23C is lower in self-cleavage: 0.454 for the first, 0.375 for the second.

First: U21G C38G
Second: U9A G36A
The self-cleavage of the first is lower: 0.303 for the first, 0.621 for the second.

First: C3U G39U
Second: G8U
The self-cleavage of the first is lower: 0.343 for the first, 1.02 for the second.

Compared with G10A G22C, C16U G22A is higher in self-cleavage: 0.32 for the first, 0.386 for the second.

Going from G10U G27A to G5U G39U, the self-cleavage falls from 0.825 to 0.33.

First: C16U C29A
Second: C30G G31U
The self-cleavage of the first is lower: 0.586 for the first, 0.88 for the second.

First: G4A U13G
Second: C11A A34C
The self-cleavage of the first is lower: 0.616 for the first, 0.731 for the second.

Going from G31C A37G to U19G A37C, the self-cleavage falls from 0.968 to 0.331.

Compared with G17U U19G, U13G U19G is higher in self-cleavage: 0.257 for the first, 0.314 for the second.

Compared with G10U C16A, G10U C16U is higher in self-cleavage: 1.06 for the first, 1.17 for the second.

Compared with C11U C43A, A1C A6C is higher in self-cleavage: 0.36 for the first, 0.393 for the second.

Going from G8U A26G to A1G G17A, the self-cleavage rises from 0.351 to 0.896.

Compared with G8C C16A, C11A U24A is higher in self-cleavage: 0.446 for the first, 1.14 for the second.

Compared with G17U A42C, A23G G27U is lower in self-cleavage: 0.394 for the first, 0.282 for the second.

Compared with C3A A42G, U9G U13C is higher in self-cleavage: 0.279 for the first, 1.04 for the second.

Compared with G35C G39U, U28G C43G is lower in self-cleavage: 0.307 for the first, 0.274 for the second.

First: C11A U19C
Second: C20G U32G
The self-cleavage of the first is higher: 0.603 for the first, 0.28 for the second.

First: C11U A40G
Second: G10C U32C
The self-cleavage of the first is lower: 0.342 for the first, 1.3 for the second.

Going from G10C A26C to G4C G31C, the self-cleavage rises from 0.447 to 0.768.

Going from A41U A44C to G8C C30U, the self-cleavage rises from 0.377 to 0.981.

Going from U19A G35A to U14C A37U, the self-cleavage rises from 0.317 to 0.624.

Going from U19G A40G to U9G G27A, the self-cleavage rises from 0.384 to 0.449.

Going from C2A U9A to U7G G45U, the self-cleavage falls from 0.563 to 0.526.

Compared with U21A A37U, G17U A44C is lower in self-cleavage: 0.502 for the first, 0.495 for the second.

Going from G36A C38G to A26U A34G, the self-cleavage rises from 0.342 to 0.482.

Compared with A23C C43G, G4C A41G is lower in self-cleavage: 0.274 for the first, 0.255 for the second.

Compared with C11A C20U, C3A U19C is lower in self-cleavage: 0.681 for the first, 0.277 for the second.

First: A6C U21C
Second: G8A G17C
The self-cleavage of the first is lower: 0.389 for the first, 0.493 for the second.

Going from U14G A44U to C2G G17C, the self-cleavage falls from 0.609 to 0.329.

Going from U7C G25A to A23U G31U, the self-cleavage rises from 0.402 to 0.477.

First: U19C C43A
Second: G8A C30G
The self-cleavage of the first is lower: 0.284 for the first, 1.04 for the second.

Going from A41U G45U to A41U G45A, the self-cleavage rises from 0.359 to 0.401.

First: G25C A42U
Second: G25U C43A
The self-cleavage of the first is lower: 0.332 for the first, 0.359 for the second.

Going from G17C A34U to G27C C43U, the self-cleavage falls from 0.501 to 0.399.

First: A6G A44G
Second: C11A A42U
The self-cleavage of the first is higher: 1.08 for the first, 0.282 for the second.

Compared with U7C U12A, U28A G33A is lower in self-cleavage: 1.42 for the first, 0.829 for the second.

First: U21C G36A
Second: C11G U32G
The self-cleavage of the first is lower: 0.718 for the first, 1.19 for the second.

Going from C2G A40U to C16U A23G, the self-cleavage rises from 0.287 to 0.423.

Going from C16U A42C to C15G A26U, the self-cleavage rises from 0.363 to 0.516.

First: G17U C29A
Second: G4U A42C
The self-cleavage of the first is higher: 0.523 for the first, 0.265 for the second.

Compared with G4U C29A, C3U C20U is higher in self-cleavage: 0.265 for the first, 0.523 for the second.

Going from G35U A42C to C16A G22A, the self-cleavage falls from 0.384 to 0.299.

First: A37G C38U
Second: G35C A37C
The self-cleavage of the first is higher: 0.534 for the first, 0.504 for the second.

Going from G18A U19A to G18A U19G, the self-cleavage falls from 0.367 to 0.359.

First: C11U A42G
Second: A23G A26C
The self-cleavage of the first is higher: 0.304 for the first, 0.263 for the second.

Going from C11A A23C to C11G U21G, the self-cleavage rises from 0.491 to 0.847.

Going from U32C A42U to C11A U13G, the self-cleavage rises from 0.366 to 0.853.

Compared with G39U A42U, G39U A42C is lower in self-cleavage: 0.39 for the first, 0.353 for the second.

First: A23U G45A
Second: C2A A23G
The self-cleavage of the first is higher: 0.336 for the first, 0.334 for the second.

First: C3A C30G
Second: U14G U24A
The self-cleavage of the first is lower: 0.426 for the first, 1.03 for the second.

Compared with G4U U7A, A1U C2U is higher in self-cleavage: 0.432 for the first, 0.598 for the second.

Compared with U28G A42C, G25U A44U is higher in self-cleavage: 0.24 for the first, 0.373 for the second.

Going from A1U A44U to U19A U24C, the self-cleavage falls from 0.425 to 0.362.

Going from G18U G39A to G17U A37U, the self-cleavage rises from 0.339 to 0.586.

Compared with G17U A37G, A34C C38U is higher in self-cleavage: 0.568 for the first, 0.758 for the second.

First: A41C A42G
Second: A6C A42C
The self-cleavage of the first is lower: 0.276 for the first, 0.35 for the second.

Going from U13A G35A to C2G C15G, the self-cleavage falls from 0.89 to 0.29.

First: C2G C43U
Second: G8C G31C
The self-cleavage of the first is lower: 0.305 for the first, 0.822 for the second.

Compared with U28G A44U, G17U U32G is higher in self-cleavage: 0.397 for the first, 0.73 for the second.

First: C16A G35A
Second: C20G G31C
The self-cleavage of the first is higher: 0.727 for the first, 0.321 for the second.

Compared with A23G G36C, C16A U19G is higher in self-cleavage: 0.291 for the first, 0.295 for the second.

Going from G5C G17A to G4A G5U, the self-cleavage rises from 0.313 to 0.398.

Compared with U7C A40U, U7C A40G is higher in self-cleavage: 0.373 for the first, 0.382 for the second.

Going from G18U C38G to A42C C43U, the self-cleavage falls from 0.442 to 0.38.

First: G10U U14A
Second: U13C G35C
The self-cleavage of the first is higher: 0.822 for the first, 0.774 for the second.

Going from G25A A34G to U14G G33A, the self-cleavage rises from 0.3 to 0.518.

First: G5U C30G
Second: G5U U21A
The self-cleavage of the first is lower: 0.445 for the first, 0.45 for the second.

First: G35A C38G
Second: C11U G22C
The self-cleavage of the first is higher: 0.387 for the first, 0.339 for the second.

Compared with A23G A41U, C11G C15U is higher in self-cleavage: 0.298 for the first, 0.986 for the second.

Compared with C16A G27A, U24C A34U is higher in self-cleavage: 0.715 for the first, 0.824 for the second.

Compared with C30G A37G, C11G G33U is higher in self-cleavage: 0.571 for the first, 1.53 for the second.

Compared with C15A G39A, C11A A37U is higher in self-cleavage: 0.337 for the first, 0.633 for the second.

Going from G27C C30A to A6G, the self-cleavage rises from 0.401 to 0.806.

Going from A6C C11A to C2A C20A, the self-cleavage falls from 0.669 to 0.292.

Compared with A26C G36A, U9C G31A is higher in self-cleavage: 0.395 for the first, 1.39 for the second.

Going from C2A A26U to U24G C38G, the self-cleavage rises from 0.374 to 0.865.

Going from C15A C16G to U21G G27C, the self-cleavage falls from 0.521 to 0.4.

First: G25A A42U
Second: U32C A40G
The self-cleavage of the first is lower: 0.333 for the first, 0.406 for the second.

Work on U12C U13A yielded a self-cleavage of 1.36.
